Data reported in article PMC4506499.

Assays:
[1] = biological target: T1, Human Upf1-CH-HD (115-914 amino acids) (human) (UniProt Q92900)
T1 sequence: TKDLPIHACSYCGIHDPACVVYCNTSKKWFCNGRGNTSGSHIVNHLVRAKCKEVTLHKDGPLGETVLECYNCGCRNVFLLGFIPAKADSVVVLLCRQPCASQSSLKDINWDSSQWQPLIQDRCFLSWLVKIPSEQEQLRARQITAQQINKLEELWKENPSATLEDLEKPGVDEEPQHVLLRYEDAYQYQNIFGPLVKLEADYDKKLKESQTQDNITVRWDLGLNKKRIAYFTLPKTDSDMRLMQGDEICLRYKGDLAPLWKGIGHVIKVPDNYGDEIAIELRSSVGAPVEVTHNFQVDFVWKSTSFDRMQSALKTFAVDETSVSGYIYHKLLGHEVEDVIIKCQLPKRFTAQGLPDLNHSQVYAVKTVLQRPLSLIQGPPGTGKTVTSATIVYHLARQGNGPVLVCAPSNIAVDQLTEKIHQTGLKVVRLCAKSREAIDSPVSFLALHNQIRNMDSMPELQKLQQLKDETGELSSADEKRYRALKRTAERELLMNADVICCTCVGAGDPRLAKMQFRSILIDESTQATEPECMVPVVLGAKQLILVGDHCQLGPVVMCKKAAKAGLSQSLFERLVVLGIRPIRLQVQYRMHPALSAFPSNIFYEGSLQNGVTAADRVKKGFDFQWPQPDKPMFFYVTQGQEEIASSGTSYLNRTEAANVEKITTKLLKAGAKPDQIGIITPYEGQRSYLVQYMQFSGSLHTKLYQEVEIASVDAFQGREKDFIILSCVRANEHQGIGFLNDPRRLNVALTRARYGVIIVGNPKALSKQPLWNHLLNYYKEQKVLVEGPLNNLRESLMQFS

[2] = biological target: T1, Human Upf1-CH-HD (115-914 amino acids) (human); remark: listed apart in the source
[3] = biological target: T1, Human Upf1-CH-HD (115-914 amino acids) (human); remark: listed apart in the source

activity ratio Ac=u/(u+b) (unwinding events over unwinding plus binding events), magnetic tweezers on a DNA hairpin; Upf1-CH-HD alone Ac=49% [1]: 81% | share of Upf1-CH-HD/Upf2 binding events with a normal rising edge but a falling edge interrupted by blocking (magnetic tweezers, DNA hairpin) [2]: 76% | processivity factor fp (enzymes reaching the hairpin apex over total bursts), magnetic tweezers on the 1.2 kb DNA hairpin (fraction (24 of 25 bursts)) [3]: 0.96
Substance: Human Upf2 (761-1227 amino acids) (from UniProt Q9HAU5 761-1227) (domain or fragment)
